Columns and labels:
PDLP5pro:GUS = test: Hormone treatment of PDLP5pro:GUS seedlings, GUS staining of roots; assay type: in vivo, Arabidopsis thaliana; conditions: 7-day-old seedlings, 9 hours; NAA 100 nM, SA 100 μM, JA 50 μM, ABA 10 μM, 6-BAP 1 μM
From the text: (A) GUS staining of napthalene acetic acid (NAA)-treated roots. Images are tiled and manually aligned. Scale bars, 50 μm. (B) Model for the possible role of PDLP5 during lateral root (LR) emergence. In the wild type (WT) plant, auxin-triggered PDLP5 limits excess diffusion of auxin through PD. This helps regulate the expression timing of genes encoding LAX3 and CWR enzymes in the cortex that positively influence LR emergence. In the plant having a severe knock-down in PDLP5 (pdlp5-1), auxin can diffuse through PD into cortical (and later, epidermal) cells earlier than it should. En, endodermis; Co, cortex; Ep, epidermis This expedites the expression of emergence-promoting genes, accelerating LR emergence.
Concentrations: salicylic acid (SA), 100 μM; JA, 50 μM; ABA, 10 μM; 6-BAP, 1 μM. n=10 per treatment for each line. Representative images are shown. Scale bar, 100 μm.
(§1) To further test that PDLP5pro responds to auxin, we treated 7-day-old PDLP5pro:GUS seedlings with the auxin analog 1-napthalene acetic acid (NAA). […] However, whereas DR5:GUS staining was intensified at the root meristem, exogenous auxin-induced PDLP5pro:GUS expression was again completely excluded from the root tip (FIG. 24).
GUS solution (100 mM sodium phosphate buffer, pH 7.0, 10 mM EDTA, 0.5 mM each potassium ferrocyanide and potassium ferricyanide, 1.24 mM X-Gluc, and 0.1% Triton X-100) was vacuum-infiltrated into plant tissue for five minutes, then removed from vacuum and incubated in 37° C. for 3 to 12 hrs, followed by a series of ethanol washes. Stained tissues were imaged using Zeiss Axioskop 2 microscope. LRP were quantified by counting both the emerged LR and unemerged LR, as determined by DRS::GUS staining of the primordia, under a dissecting microscope (1.2× magnification). LRP stages were determined by examining ethanol-cleared, GUS-stained tissue using 40× water lens.

PDLP5 = test: RT-PCR of PDLP5 transcript in roots after hormone treatment; assay type: in vivo, Arabidopsis thaliana; conditions: nine-day-old seedlings, 4 hours; 100 μM SA, 5 μM NAA
Experimental: Relative band intensity was quantified with Image-J and standardized against ubiquitin. Concentrations: 100 μM salicylic acid (SA), 5 μM napthalene acetic acid (NAA). Three biological and two technical repeats were performed.
as §1

Arabidopsis thaliana [1] = test: Root length and secondary root growth of PDLP5-m5 plants; assay type: in vivo; conditions: compared to wild-type plants
From the text: The sequence of the PCR product was confirmed followed by transformation of Top10 E. coli competent cells. After sequence confirmation, the PDLP5-m5 sequence was transferred from the entry clone pEN-PDLP5-m5 into a binary vector (pGWB) including the constitutive 35S promoter by a Gateway reaction; more particularly, the sequence was cloned into an expression vector under the control of a constitutive 35S promoter to create a pGWB-35S:PDLP5-m5 clone. Agrobacteria were transformed with the pGWB-35S:PDLP5-m5 clone. More particularly, pGWB was introduced into Agrobacteria strain GV3101, and the transformed Agrobacteria were used to transform 4-week-old Arabidopsis thaliana Col-0 plants using floral dipping to produce transgenic plants expressing PDLP5-m5. Transgenic Arabidopsis plants expressing the PDLP5-m5 mutant (pro35S:PDLP5-m5) were made in Col-0 WT and pldp5-1 (severe knockdown) backgrounds.

Arabidopsis thaliana [2] = test: Drought test: 2 weeks water withdrawal, then rewatering; assay type: in vivo
Experimental: All plant lines were grown for 2 weeks with water prior to the 2 week water withdrawal. (a) Plants having a severe knock down of PDLP5 (pdlp5-1) and PDLP5-m5 plants bolt faster than plants overexpressing PDLP5 (OX) and wild type (WT) plants. (b) Plants overexpressing PDLP5 (OX) revive 3 days post rewatering (DPR). (c) Plants overexpressing PDLP5 (OX) fully recover and 10 days post rewatering (DPR); wild type (WT) plants are dead, and PDLP5-m5 plants continue to survive.
(a) Plants overexpressing PDLP5 (OX), wild type (WT) plants, plants having a severe knock down of PDLP5 (pdlp5-1), and three different PDLP5-m5 plants (T3-4-2, T2-6, and T2-26) which were all grown a different number of days as required to reach same rosette size before water withdrawal. Plants having the same rosette size are referred to as “same day bolting samples.” (b) Same day bolting samples of plants overexpressing PDLP5 (OX), wild type (WT) plants, plants having a severe knock down of PDLP5 (pdlp5-1), and three different PDLP5-m5 plants (T3-4-2, T2-6, and T2-26) at the end of a 2 week water withdrawal. (c) Same day bolting samples of plants overexpressing PDLP5 (OX) and two different PDLP5-m5 plants (T3-4-2 and T2-26) recover fully 3 days post rewatering.
Transgenic T1 plants were selected on basta+plates and homozygous T2 lines were identified by segregation test on T3 plants. For the drought test, homozygous lines were grown in soil for the 2 weeks with watering followed by 2 weeks of water withdrawal. Tolerance to drought stress of the PDLP5-m5 was assessed by the plant growth or death upon resuming watering.
PDLP5-m5 plants were evaluated by exposing them to drought conditions. PDLP-m5 plants were grown under normal conditions with water, water was withdrawn for 2 weeks, and rewatering was commenced. Plants having a severe knock down of PDLP5 (pdlp5-1) and PDLP5-m5 plants bolt faster than plants overexpressing PDLP5 and wild type plants (FIG. 13A). […] The early bolting of the PDLP5-m5 plants appeared to affect plant revival. Therefore, the experiment was repeated using same day bolting samples. Briefly, plants having the same rosette size were used, regardless of the number of days required to achieve that rosette size (FIG. 14A).

Arabidopsis thaliana [3] = test: Exposure to cold conditions (chilling); assay type: in vivo; conditions: relative to wild type plants and plants overexpressing PDLP5; 7 weeks at 5° C.
Experimental: Plants were grown to 2 weeks post germination at 20° C. followed by 7 weeks of culture at 5° C. with 16/8 hours light/darkness.

[4] = system: Nicotiana benthamiana leaves; test: Transient expression via Agrobacteria-infiltration, extent of viral movement; assay type: in vivo; conditions: transient expression in Nicotiana benthamiana leaves
Experimental: (a) Schematics of PDLP5-m5, PDLP5-C, and PDLP5-2C mutants as created by overlapping PCR. (b) Transient expression of mutants in Nicotiana benthamiana leaves.
We also created mutants altering just two cysteines (“CC”, residues 288 and 289 of the C-terminal tail region) or a single cysteine (“C”, residue 298 of the C-terminal tail region) residues to A1a. The phenotypes of these partial mutants, as well as the PDLP5-OX, pldp5-1 and PDLP5-m5, were tested in transient expression in Nicotiana benthamiana leaves via Agrobacteria-infiltration, targeting the extent of viral movement for comparison.

Arabidopsis thaliana [5] = test: Vegetative growth, flowering and seed yield of plants; assay type: in vivo
Experimental: Wild type (WT) plants, plants overexpressing […]), and plants with a severe knock down of […] used as comparisons. (a) Whole plants at 10, 14, and 18 days post germination (dpg). Plants were grown at 22-20° C. with 50% humidity and with 16/8 hours light/darkness. (b) Leaves at 3 weeks post germination. Plants were grown at 24-22° C. with 70% humidity and with 16/8 hours light/darkness. […] Wild type (WT) plants, plants overexpressing PDLP5 (OX), and plants with a severe knock down of PDLP5 (KO) were used as comparisons. […] Seeds were germinated on plates, were transferred to soil after 1 week, and plants were grown at 22-20° C. with 16/8 hours light/darkness. […] Wild type (WT) plants and plants overexpressing […]) were used as comparisons. Plants were grown at 24-22° C. with 70% humidity and with 16/8 hours light/darkness. […] The sequence of the PCR product was confirmed followed by transformation of Top10 E. coli competent cells. […] Agrobacteria were transformed with the […]5 clone.

`CC1=CC(=O)CC(C)(C)C1(O)/C=C/C(C)=C\C(=O)O` (centres unmarked) [ABA] was tested, and the “PDLP5pro:GUS expression in roots” value (PDLP5pro:GUS) was “did not have any effect”.

`CC/C=C\C[C@H]1C(=O)CC[C@@H]1CC(=O)O` [JA] was tested, and the “PDLP5pro:GUS expression in roots” value (PDLP5pro:GUS) was “did not have any effect”.

For `O=C(O)Cc1cccc2ccccc12` [NAA, 1-napthalene acetic acid], the “PDLP5pro:GUS expression in roots” value (PDLP5pro:GUS) was “occurred in the cells above the ectopically induced LRP” and the “PDLP5 transcript level in the roots (RT-PCR)” value (PDLP5) was “Induction of PDLP5 at the transcript level”.

In the case of `O=C(O)c1ccccc1O` [SA, salicylic acid], the “PDLP5pro:GUS expression in roots” value (PDLP5pro:GUS) is reported as “induces PDLP5pro:GUS expression in roots” and the “PDLP5 transcript level in the roots (RT-PCR)” value (PDLP5) is reported as “Induction of PDLP5 at the transcript level”.

cytokinin was tested, and the “PDLP5pro:GUS expression in roots” value (PDLP5pro:GUS) was “did not have any effect”.

B1: PDLP5-m5: PDLP5 mutant (SEQ ID NO:6) with three Cysteine→Alanine mutations at 288, 289, 298; expressed in transgenic plants under 35S promoter (protein)
chain: MIKTKTTSLLCFLLTAVILMNPSSSSPTDNYIYAVCSPAKFSPSSGYETNLNSLLSSFVTSTAQTRYANFTVPTGKPEPTVTVYGIYQCRGDLDPTACSTCVSSAVAQVGALCSNSYSGFLQMENCLIRYDNKSFLGVQDKTLILNKCGQPMEFNDQDALTKASDVIGSLGTGDGSYRTGGNGNVQGVAQCSGDLSTSQCQDCLSDAIGRLKSDCGMAQGGYVYLSKCYARFSVGGSHARQTPGPNFGHEGEKGNKDDNGVGKTLAIIIGIVTLIILLVVFLAFVGKAARKLQDEKWAK
modifications: modified PDLP5 protein
notes: expressed in transgenic plants under 35S promoter
With B1 the “total secondary root growth” value (Arabidopsis thaliana [1]) was “increase in total secondary root growth”, the “increase in root length” value (Arabidopsis thaliana [1]; 10 days post germination) was 30-40% and the outcome upon rewatering (Arabidopsis thaliana [2]; rewatering after 2 weeks water withdrawal) was “continued to grow upon rewatering”. For the same molecule, the bolting (Arabidopsis thaliana [2]; versus plants overexpressing PDLP5 and wild type plants) was “bolt faster”, the “response to water withdrawal” value (Arabidopsis thaliana [2]; water withdrawn for 2 weeks) was “resistant to water withdrawal” and the “resistance to cold conditions” value (Arabidopsis thaliana [3]) was “improved resistance”. The “extent of viral movement” value [4] was “more extensive viral movement”, the rosette diameter (Arabidopsis thaliana [5]; 22-20° C., 16/8 hours light/darkness) was “relative rosette diameter is maintained” and the seed yield (Arabidopsis thaliana [5]; compared to wild type and pdlp5-1) was “normal to better seed yield”. The flowering (Arabidopsis thaliana [5]; compared with WT and PDLP5-OX) was “early flowering” and the vegetative growth (Arabidopsis thaliana [5]; compared with WT, PDLP5-OX, pdlp5-1) was “fast vegetative growth”.

B2: PDLP5-CC: PDLP5 mutant altering two cysteines (residues 288 and 289 of the C-terminal tail) to Ala (protein, UniProt Q8GUJ2 26-299, looked up, variant C288A C289A)
Plasmodesmata-located protein …: SPTDNYIYAVCSPAKFSPSSGYETNLNSLLSSFVTSTAQTRYANFTVPTGKPEPTVTVYGIYQCRGDLDPTACSTCVSSAVAQVGALCSNSYSGFLQMENCLIRYDNKSFLGVQDKTLILNKCGQPMEFNDQDALTKASDVIGSLGTGDGSYRTGGNGNVQGVAQCSGDLSTSQCQDCLSDAIGRLKSDCGMAQGGYVYLSKCYARFSVGGSHARQTPGPNFGHEGEKGNKDDNGVGKTLAIIIGIVTLIILLVVFLAFVGKAARKLQDEKWCK
In the case of B2, the “extent of viral movement” value [4] is reported as “did not show PDLP5-m5 effect”.

B3: PDLP5-C: PDLP5 mutant altering a single cysteine (residue 298 of the C-terminal tail) to Ala (protein, UniProt Q8GUJ2 26-299, looked up, variant C298A)
Plasmodesmata-located protein …: SPTDNYIYAVCSPAKFSPSSGYETNLNSLLSSFVTSTAQTRYANFTVPTGKPEPTVTVYGIYQCRGDLDPTACSTCVSSAVAQVGALCSNSYSGFLQMENCLIRYDNKSFLGVQDKTLILNKCGQPMEFNDQDALTKASDVIGSLGTGDGSYRTGGNGNVQGVAQCSGDLSTSQCQDCLSDAIGRLKSDCGMAQGGYVYLSKCYARFSVGGSHARQTPGPNFGHEGEKGNKDDNGVGKTLAIIIGIVTLIILLVVFLAFVGKCCRKLQDEKWAK
With B3 the “extent of viral movement” value [4] was “did not show PDLP5-m5 effect”.

From patent US20160272995A1, “MANIPULATION OF PLASMODESMAL CONNECTIVITY TO IMPROVE PLANT YIELD AND FITNESS” (UNIVERSITY OF DELAWARE, priority 2013, published 2016)
